Patent US20140287419A1, “Compositions Having Dicamba Decarboxylase Activity and Methods of Use” (priority 2013, published 2014)

Test: 14C assay with IPTG-induced recombinant E. coli cells (14CO2 capture from [14C]-carboxyl-labeled dicamba)
Conditions: for Dicamba Decarboxylase Activity: IPTG-induced recombinant E. coli cells, [14C]-carboxyl-labeled dicamba, 14CO2 capture; for Enzymatic Detection level: dicamba decarboxylation activity of the protein of the given SEQ ID NO

Row | Molecule | Dicamba Decarboxylase Activity | Enzymatic Detection level
1 | 103 (protein, Plasmodium yoelii yoelii) MAMEIPTEEIKFLKKEDVQNIDLNGMSKKERYEIWRRIPKVELHCHLDLTFSAEFFLKWARKYNLQPNMSDDEILDHYLFTKEGKSLAEFIRKAISVSDLYRDYDFIEDLAKWAVIEKYKEGVVLMEFRYSPTFVSSSYGLDVELIHKAFIKGIKNATELLNNKIHVALICISDTGHAAASIKHSGDFAIKHKHDFVGFDHGGREIDLKDHKDVYHSVRDHGLHLTVHAGEDATLPNLNTLYTAINILNVERIGHGIRVSESDELIELVKKKDILLEVCPISNLLLNNVKSMDTHPIRKLYDAGVKVSVNSDDPGMFLSNINDNYEKLYIHLNFTLEEFMIMNNWAFEKSFVSDDVKSELKALYF | No | No
2 | 104 (protein, Plasmodium Vivax) MANILQEPIDFLKKEELKNIDLSQMSKKERYKIWKRIPKCELHCHLDLCFSADFFVSCIRKYNLQPNLSDEEVLDYYLFAKGGKSLGEFVEKAIKVADIFHDYEVIEDLAKHAVFNKYKEGVVLMEFRYSPTFVAFKYNLDIELIHQAIVKGIKEVVELLDHKIHVALMCIGDTGHEAANIKASADFCLKHKADFVGFDHGGHEVDLKEYKEIFDYVRESGVPLSVHAGEDVTLPNLNTLYSAIQVLKVERIGHGIRVAESQELIDMVKEKNILLEVCPISNVLLKNAKSMDTHPIRQLYDAGVKVSVNSDDPGMFLTNINDDYEELYTHLNFTLEDFMKMNEWALEKSFMDSNIKDKIKNLYF | No | No
3 | 105 (protein, Deinococcus radiodurans) MAIDFHVHLDLYPDPVAVARACEERQLTVLSVTTTPAAWRGTLALAAGRPHVWTALGFHPEVVSERAADLPWFDRYLPETRFVGEVGLDGSPSLRGTWTQQFAVFQHILRRCEDHGGRILSIHSRRAESEVLNCLEANPRSGTPILHWYSGSVTELRRAISLGCWFSVGPTMVRTQKGAALIRSMPRDRVLTETDGPFLELDGQAALPWDVKSVVEGLSKIWQIPASEVERIVKENVSRLLGTVR | No | No
4 | 106 (protein, listed as Pyrococcus horikoshii) MAGMKFIKNLHVSKLVIDSMKALINGTIYTSFNPLKKVSGLVISHGKVIYAGDSEVAKKIVELSGGEIVDLKGKYVMPAFFDSHLHLDELGMSLEMVDLRGAKSIEELIQRLKRGKGRIIFGFGWDQDELGEWPTRKELNAIDKPVFIYRKCFHVAVANDKMLELLNLTPSKDFDEDTGIIKEKSLEEARKVINERVLTVEDYVYYIKRAQEHLLDLGVKSVSFMSVNEKALRALFYLEREGKLSINVFAYVTPEVLDKLESIGLGRFQGNRLTIAGVKLFTDGSLGARTALLSKPYSDDPSTSGQLVMEREELIRITEKARSLGLDVAIHAIGDKALDVALDVFETTGFPGRIEHASLVRDDQLERVKNLKVRLSVQPHFIISDWWIVERVGEERVKWVYRFKDLMKVAELGFSTDSPIEPADPWLTVDAAVNRGKGKVKLYELTKDQALDIKDALHSYTYGSARVSLASDIGKLEPGFKAEYIILDRDPLVVK | No | No
5 | 107 (protein, listed as Rhodopseudomonas palustris) MAIIDIHGHYTTAPKALEDWRNRQIAGIKDPSVMPKVSELKISDDELQASIIENQLKKMQERGSDLTVFSPRASFMAHHIGDFNVSSTWAAICNELCYRVSQLFPDNFIGAAMLPQSPGVDPKTCIPELEKCVKEYGFVAINLNPDPSGGHWTSPPLTDRIWYPIYEKMVELEIPAMIHVSTSCNTCFHTTGAHYLNADTTAFMQCVAGDLFKDFPELKFVIPHGGGAVPYHWGRFRGLAQEMKKPLLEDHVLNNIFFDTCVYHQPGIDLLNTVIPVDNVLFASEMIGAVRGIDPRTGFYYDDTKRYIEASTILTPEEKQQIYEGNARRVYPRLDAALKAKGK | No | No
6 | 108 (protein, listed as Staphylococcus aureus) MAKSITFEEHYVIEDIQKETMNAISADPKGVPMKVMLEGLEKKTGFTNADELSHHDERIQFMNNQDVQIQVLSYGNGSPSNLVGQKAIELCQKANDQLANYIAQYPNRFVGFATLPINEPEAAAREFERCINDLGFKGALIMGRAQDGFLDQDKYDIIFKTAENLDVPIYLHPAPVNSDIYQSYYKGNYPEVTAATFACFGYGWHIDVGIHAIHLVLSGIFDRYPKLNMIIGHWGEFIPFFLERMDEALFAEHLNHSVSYYFKNSFYITPSGMLTKPQFDLVKKEVGIDRILYAADYPYIEPEKLGVFLDELGLTDEEKEKISYTNGAKLLGLSSNN | High | High
7 | 9 (protein, listed as Octadecabacter antarcticus) MATPKITFEEHFMAPGFEKHSEAFLKLIPRDQAEILTRRLGDFDGERIETMDRGGITRSIISLTGPGTQGEAVEKAVSAAQGANDFLAEKISKKPDRLGGLATLPMHDPDAAARELNRAVNDLGLQGCLVNTHTHGAYYEGTDYDPFWAEVEKLGVPFYLHPSNAYVTPHVLGGMPVLQGATWGWGVETGSHALRILFGGVFDRFPDVKLVLGHMGEALPFLRWRYDSRFGAYPMGVSLDRAPSAYFGSNILITTSGVCSHPSLIGAIGEMGADAVMFSVDYPYEDTDLAVEFIETAPLEDATRVKICHDNAARLFGMPTLAAKEGA | No | No
8 | 10 (protein, listed as Starkeya novella) MARKIALEEHFTTPELAGKYVARPTQSDALFADIERRLADFDELRLEMMDRAEIDLMVLSVTTPGVQGVRDTGEAIRLARGANDFLAREVQKRPSRYAGFAHLAMQDAEAAATELERAVRELGFRGALINGQTNGHYLDEDQYAPFWERVQELDVPVYLHPGNMADSPAMFAHRPELGGPIWAWTAETAAHALRLVFGGTFTRFPGAKVILGHMGETLPFLLWRLDSRREFDLGEKLAPDALPSAIIKRNIAVTTSGVCDPAPLVAALQALSDDNVMFSVDYPYEDPQLASKFIETAPIGEETRAKVCHGNAERLLGL | Low | Low
9 | 11 (protein, Aspergillus niger) MALGKIALEEAFALPRFEEKTRWWASLFSVDPETHVKEITDINKLRIEHADKYGVGYQILSYTAPGVQDIWDPVEAQALAVEINDYIAEQIRDKPDRFGAFATLSMHNPQEAASELRRCVQTYGFKGALVNDTQRAGPDGDDMIFYDNASWDIFWQTCTELDVPLYLHPRNPTGTIYEKLWADRKWLVGPPLSFAQGVSLHVLGMVTNGVFDRHPNLQLIMGHLGEHVPFDMWRINHWFEDRKKLLGLAETCKKTIREYFAQNIWITTSGHFSTTTLNFCMAEVGVDRILFSIDYPFETFEDACVWFDGAELNLSDKAKIGRDNAARLFKLGAFRDYDAKVKA | Low | Low
10 | 12 (protein, listed as Zymoseptoria tritici) MALGKVAFEEAFALPRFKERTTWWAGLFAVDPEKHTREINDINKLRIEKMDQFGVGYTLLSYTAPGVQDVWQQEEADALAREVNDHVAAEIKGHEDRLGALATLSMHDPQTASAELRRCIKDYGFKGALVNDTQRNDESGTGMIFYDGPEWDVFWSTVQELDVPFYLHPRNPTGVFMEKLWAPRKWLVGPPLSFAQGVSLHLLGMVTNGTFDRFPNLQVIIGHLGEHLPFDLWRINHWFEDIKKPLGLDCKKTIREYFNENIWITTSGHFSTPTLEYCIKEIGAERILFSIDYPFEKFEDACDWYDGVELDGPDTVKKIGRENAKKLFKLGAFKDDSA | No | No
11 | 13 (protein, listed as Metarhizium acridum) MAHGKVALEEAFALPRLHEKTRWWASLFAVNPDKHAAEMTDITDIRINYMDKHGVGYTILSYTAPGVQDISDPKEAQALAVEINDYVAGAIKNHPDRFGAFATLSMRNPQEAATELKRCVTQYGFKGALVNDTQRAGEDDMIFYDGPEWDVFWSTVEELDVPFYLHPRNPTGSLYEKLWAKRKWLVGPPLSFAQGVSLHVLGMVTNGVFDRHPKLQVVLGHLGEHIPFDMWRINHWFEDVKKPLGLDCKKTIREYFQQNIWITTSGHFSTTTLQFCMAEVGADRILFSIDYPFECFADACDWYDGVPINLVDKAKIGRDNARRLFKLPEFKDSEKHVDA | No | No
12 | 14 (protein, listed as Talaromyces marneffei) MARGKVSFEEAYEIPALADKSREQAALYIAPKDLDRYLSEIKSPTGGRLDISNKNGIGYTIYSLTVPGVQGIADKAKAEKHATDVNNWIYNEIKDHRDRMGAFAALSMHDPVQAGQELERCVKKLGFHGALLNNWQHAGTDGETYIFYDHPSYDVFWQKCVELDVPVYLHPSAPSGKVFDTFFKDRRYLIGPPISFAQDVALHTMGLITNGVFDRNPKLKLILGHLGERIPQDLWRTNHWLEDVERPLADSRGDTMSRKPLLYYFKNNIYVTTSGHFSTETVKFVCDYFGADRILFSVDSPYEKIEEGAGWYDKDKDNLTKALGGPQQYLDVGRENAKKLFKLGKYHDCDA | Low | Low
13 | 15 (protein, listed as Metarhizium anisopliae) MAQEIAKSHETSTRFAGFAVLPMRDPEAAAKELERAVKKLGFVGALVDHKTAHGNGFCEGNEYDVLWRKAEQLAVPIYLHPSWPTEKQFQQAYAGNYSPTAAGTIGGAMFNWHSEVGHHVLRLYAAGVFDKFPKLKIIIGHFGEMIPYMLDRIREQDHRLGKTGRTFSEVYDENIWITTSGVWSLDPMRCILANTKIDHILYSVDYPFTMNERGLEWFQELEKSGLLSEEDLALIAYKNCEKLLGVKAPTQD | Low | Low
14 | 16 (protein, listed as Staphylococcus aureus) MAQNNMEANQMKSITFEEHYVIEDIQKETMNAISADPKGVPMKVMLEGLEKKTGFTNADELSHHDERIQFMNNQDVQIQVLSYGNGSPSNLVGQKAIELCQKANDQLANYIAQYPNRFVGFATLPINEPETAAREFERCINDLGFKGALIMGRAQDGFLDQDKYDIIFKTAENLGVPIYLHPAPVNSDIYQSYYKGNYPEVTAATFACFGYGWHIDVGIHAIHLVLSGIFDRYPKLNMIIGHWGEFIPFFLERMDEALFAEHLNHPVSYYFKNNFYITPSGMLTKPQFDLVKKEAGIDRILYAADYPYIEPEKLGVFLDELGLTDEEKEKISYTNGAKLLGLSSNN | High | High
